The text below walks through data of patent US20190218304A1 (INNATE PHARMA, published 2019).

Changes are numbered by the printed parent chain.

The target in one experiment is T1, CD39 mutant 15 (human, UniProt P49961 1-510).
T1 construct: Expressed on transfected Hek-293T cells; also called M15
T1 chain: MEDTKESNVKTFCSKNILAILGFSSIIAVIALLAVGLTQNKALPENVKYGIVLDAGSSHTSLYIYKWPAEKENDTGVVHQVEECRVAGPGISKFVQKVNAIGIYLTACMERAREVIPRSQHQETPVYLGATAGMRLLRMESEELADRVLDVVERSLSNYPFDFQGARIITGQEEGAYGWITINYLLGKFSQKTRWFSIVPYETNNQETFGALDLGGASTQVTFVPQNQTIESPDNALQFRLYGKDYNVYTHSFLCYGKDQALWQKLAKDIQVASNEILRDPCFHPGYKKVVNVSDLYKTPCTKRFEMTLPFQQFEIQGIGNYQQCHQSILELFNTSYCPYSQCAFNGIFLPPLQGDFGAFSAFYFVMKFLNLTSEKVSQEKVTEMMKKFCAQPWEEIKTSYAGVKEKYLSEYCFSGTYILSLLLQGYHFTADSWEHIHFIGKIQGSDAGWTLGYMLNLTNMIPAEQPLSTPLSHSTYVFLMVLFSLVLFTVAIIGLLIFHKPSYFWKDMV
In words: flow cytometry on Hek-293T cells transfected with CD39 mutant 15 [panel M15].

Experiment [1] addresses T2, human CD39 expressed on cells (human, UniProt P49961 1-510).
T2 construct: On CHO transfectants, HEK-293T transfectants (wild type), Ramos lymphoma cells or monocyte-derived dendritic cells, as named under assay; also called huCD39; CHO-huCD39
T2 sequence: T1 chain with A87K, A100E, A107D
In words: flow cytometry titration on CHO cells expressing human CD39, labeled secondary antibody [panel CHO-huCD39]. The protocol:
(§1) Cells were incubated with various concentration of unlabeled anti-CD39 antibody from 30 μg/ml to 5×10⁻⁴ μg/ml, for 30 minutes at 4° C. After washes, cells were incubated with Goat anti-mouse H+L labeled secondary antibody for 30 min at 4° C.

In experiment [2] the target is T3, murine CD39 expressed on CHO cells (murine, UniProt P55772 1-510).
T3 construct: whole, on cells; also called CHO-moCD39; mouse CD39
T3 sequence (looked up): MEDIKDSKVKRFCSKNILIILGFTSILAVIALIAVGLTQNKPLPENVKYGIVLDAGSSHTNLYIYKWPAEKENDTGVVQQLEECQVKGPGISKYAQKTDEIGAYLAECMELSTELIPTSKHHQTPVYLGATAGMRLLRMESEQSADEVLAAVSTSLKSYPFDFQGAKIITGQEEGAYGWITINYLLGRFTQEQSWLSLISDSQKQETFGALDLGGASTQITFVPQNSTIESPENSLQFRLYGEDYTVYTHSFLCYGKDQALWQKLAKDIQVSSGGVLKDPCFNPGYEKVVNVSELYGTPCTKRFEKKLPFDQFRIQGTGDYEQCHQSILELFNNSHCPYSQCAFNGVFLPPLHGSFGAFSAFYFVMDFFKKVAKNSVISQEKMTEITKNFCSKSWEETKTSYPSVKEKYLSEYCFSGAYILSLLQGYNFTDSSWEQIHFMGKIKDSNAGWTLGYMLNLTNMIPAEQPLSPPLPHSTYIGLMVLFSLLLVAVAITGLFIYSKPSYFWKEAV
Nature of the experiment: flow cytometry titration on CHO cells expressing murine CD39 [panel CHO-moCD39]. The protocol:
as §1

B1: antibody I-394 (antibody, human IgG1, kappa, V domains shown)
VH: EVQLQQSGPELVKPGASVKMSCKASGYTFTDYNMHWVKQSHGRTLEWIGYIVPLNGGSTFNQKFKGRATLTVNTSSRTAYMELRSLTSEDSAAYYCARGGTRFAYWGQGTLVTVSA
VL: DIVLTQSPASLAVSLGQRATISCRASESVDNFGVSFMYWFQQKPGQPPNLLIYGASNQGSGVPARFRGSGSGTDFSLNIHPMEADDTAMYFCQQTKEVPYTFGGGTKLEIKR
notes: The hybridoma-derived mouse form was used in early screening
Take B1: the binding result with CD39 mutant 15 is recorded as “binds”; in experiment [2], “no binding”. In addition, the “EC50 (read off the curve)” value in experiment [1] was ~0.2 µg/mL.
